Laboratory results reported in ChEMBL document CHEMBL1157347, “Chemoenzymatic syntheses of prenylated aromatic small molecules using Streptomyces prenyltransferases with relaxed substrate specificities” (Bioorg Med Chem, 2008).

Columns and labels:
[1] = biological target: T1, Prenyltransferase homolog (Streptomyces coelicolor A3) (UniProt Q9FBZ2); assay: Ratio of Kcat to Km of Streptomyces coelicolor A3(2) prenyltransferase assessed as formation of 6-(3,7-Dimethyl-octa-2,6-dienyl)-5,7-dihydroxy-2-(4-hydroxy-phenyl)-chroman-4-one
T1 sequence (whole entry): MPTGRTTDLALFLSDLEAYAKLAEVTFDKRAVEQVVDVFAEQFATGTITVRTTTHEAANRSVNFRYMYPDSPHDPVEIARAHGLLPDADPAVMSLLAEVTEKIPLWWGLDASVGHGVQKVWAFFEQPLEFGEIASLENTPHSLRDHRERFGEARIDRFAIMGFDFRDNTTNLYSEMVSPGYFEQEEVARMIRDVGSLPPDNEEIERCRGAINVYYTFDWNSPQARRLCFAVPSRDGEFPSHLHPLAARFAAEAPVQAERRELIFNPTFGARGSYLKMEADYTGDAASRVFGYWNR

[2] = biological target: T1, Prenyltransferase homolog (Streptomyces coelicolor A3); assay: Ratio of Kcat to Km of Streptomyces coelicolor A3(2) prenyltransferase assessed as formation of 7-(3,7-Dimethyl-octa-2,6-dienyloxy)-5-hydroxy-2-(4-hydroxy-phenyl)-chroman-4-one
[3] = test system: NphB prenyltransferase (Streptomyces sp. CL190); assay: Ratio of Kcat to Km of Streptomyces sp. CL190 NphB prenyltransferase assessed as formation of 4-(3,7-dimethylocta-2,6-dienyl)naphthalene-1,6-diol
[4] = test system: NphB prenyltransferase (Streptomyces sp. CL190); assay: Ratio of Kcat to Km of Streptomyces sp. CL190 NphB prenyltransferase assessed as formation of 2-(3,7-dimethylocta-2,6-dienyl)naphthalene-1,6-diol
[5] = test system: NphB prenyltransferase (Streptomyces sp. CL190); assay: Ratio of Kcat to Km of Streptomyces sp. CL190 NphB prenyltransferase assessed as formation of 5-(3,7-dimethylocta-2,6-dienyl)naphthalene-1,6-diol
[6] = biological target: NphB prenyltransferase (Streptomyces sp. CL190); assay: Activity for Streptomyces sp. CL190 prenyltransferase NphB assessed as formation of 7-(3,7-dimethylocta-2,6-dienyloxy)-5-hydroxy-3-(4-hydroxyphenyl)-2,3-dihydrochromen-4-one
[7] = biological target: NphB prenyltransferase (Streptomyces sp. CL190); assay: Activity for Streptomyces sp. CL190 NphB prenyltransferase assessed as formation of 4-(3,7-dimethylocta-2,6-dienyl)naphthalene-1,6-diol
[8] = biological target: NphB prenyltransferase (Streptomyces sp. CL190); assay: Activity for Streptomyces sp. CL190 prenyltransferase NphB assessed as formation of 1-(3,7-dimethylocta-2,6-dienyl)naphthalene-2,7-diol
[9] = substrate: O=C1C[C@@H](c2ccc(O)cc2)Oc2cc(O)cc(O)c21; assay: Activity for Streptomyces coelicolor A3(2) prenyltransferase assessed as formation of 6-(3,7-Dimethyl-octa-2,6-dienyl)-5,7-dihydroxy-2-(4-hydroxy-phenyl)-chroman-4-one
[10] = biological target: NphB prenyltransferase (Streptomyces sp. CL190); assay: Activity for Streptomyces sp. CL190 prenyltransferase NphB assessed as formation of 2-(3,7-dimethylocta-2,6-dienyl)naphthalene-1,6-diol
[11] = biological target: NphB prenyltransferase (Streptomyces sp. CL190); assay: Activity for Streptomyces sp. CL190 prenyltransferase NphB assessed as formation of 6-(3,7-Dimethyl-octa-2,6-dienyl)-5,7-dihydroxy-2-(4-hydroxy-phenyl)-chromen-4-one
[12] = biological target: NphB prenyltransferase (Streptomyces sp. CL190); assay: Activity for Streptomyces sp. CL190 prenyltransferase NphB assessed as formation of 5-(3,7-dimethylocta-2,6-dienyl)naphthalene-1,6-diol
[13] = biological target: NphB prenyltransferase (Streptomyces sp. CL190); assay: Activity for Streptomyces sp. CL190 NphB prenyltransferase assessed as formation of 7-(3,7-dimethylocta-2,6-dienyloxy)-3-(4-hydroxyphenyl)-2,3-dihydrochromen-4-one
[14] = biological target: NphB prenyltransferase (Streptomyces sp. CL190); assay: Activity for Streptomyces sp. CL190 NphB prenyltransferase assessed as formation of 4-(3,7-dimethylocta-2,6-dienyl)-5-pentylbenzene-1,3-diol
[15] = substrate: O=C1C[C@@H](c2ccc(O)cc2)Oc2cc(O)cc(O)c21; assay: Activity for Streptomyces coelicolor A3(2) prenyltransferase assessed as formation of 7-(3,7-Dimethyl-octa-2,6-dienyloxy)-5-hydroxy-2-(4-hydroxy-phenyl)-chroman-4-one
[16] = biological target: NphB prenyltransferase (Streptomyces sp. CL190); assay: Activity for Streptomyces sp. CL190 NphB prenyltransferase assessed as formation of 2-(3,7-dimethylocta-2,6-dienyl)-5-pentylbenzene-1,3-diol
[17] = biological target: NphB prenyltransferase (Streptomyces sp. CL190); assay: Activity for Streptomyces sp. CL190 NphB prenyltransferase assessed as formation of 5-(4-hydroxystyryl)-2-((E)-3,7-dimethylocta-2,6-dienyl)benzene-1,3-diol
[18] = biological target: NphB prenyltransferase (Streptomyces sp. CL190); assay: Activity for Streptomyces sp. CL190 prenyltransferase NphB assessed as formation of 7-(3,7-Dimethyl-octa-2,6-dienyloxy)-5-hydroxy-2-(4-hydroxy-phenyl)-chromen-4-one

For `O=C1C[C@@H](c2ccc(O)cc2)Oc2cc(O)cc(O)c21`, the Ratio [1] was 0.31 and the Ratio [2] was 1.4.

Work on `Oc1ccc2c(O)cccc2c1` yielded a Ratio [3] of 0.3, a Ratio [4] of 2.2 and a Ratio [5] of 7.7.

B1: Prenyltransferase homolog (Streptomyces coelicolor A3), Q9FBZ2 (protein)
chain: T1 sequence (whole entry)
Work on B1 yielded a Km [6] of 330 µM, a kcat [6] of 0.00048 s⁻¹ and a Km [7] of 1050 µM. It also gave a kcat [7] of 0.00032 s⁻¹, a Km [8] of 340 µM and a kcat [8] of 0.00047 s⁻¹. The Km [9] was 2100 µM, the Km [10] was 510 µM and the kcat [10] was 0.0011 s⁻¹. It also gave a Km [11] of 530 µM, a kcat [11] of 0.0006 s⁻¹ and a Km [12] of 540 µM. The kcat [12] was 0.0042 s⁻¹, the Km [13] was 290 µM and the kcat [13] was 0.00017 s⁻¹. The Km [14] was 640 µM, the kcat [14] was 4.3e-05 s⁻¹ and the Km [15] was 1600 µM. For the same molecule, the Km [16] was 520 µM, the kcat [16] was 2.7e-05 s⁻¹ and the Km [17] was 440 µM. For the same molecule, the kcat [17] was 5.3e-05 s⁻¹, the Km [18] was 580 µM and the kcat [18] was 0.00033 s⁻¹.
